Laboratory results reported in the Immune Epitope Database (IEDB).

Experiments:
HLA-C*07:02 = experiment: IEDB peptide-MHC binding, purified MHC/direct/fluorescence; filed as Kd, often an IC50 or EC50 that approximates it; ≥ and ≤ were set here for values at or beyond the usual limits of such assays; conditions: source organism: Salmonella enterica subsp. enterica serovar Typhi str. CT18
HLA-B*39:01 = experiment: IEDB peptide-MHC binding, purified MHC/competitive/fluorescence; filed as Kd, often an IC50 or EC50 that approximates it; ≥ and ≤ were set here for values at or beyond the usual limits of such assays; conditions: source organism: Salmonella enterica subsp. enterica serovar Typhi
HLA-B*08:01 [1] = experiment: as above; conditions: source organism: Salmonella enterica subsp. enterica serovar Typhi
HLA-A*02:01 [2] = experiment: as above; conditions: source organism: Salmonella enterica subsp. enterica serovar Typhi
HLA-B*15:17 = experiment: IEDB peptide-MHC binding, purified MHC/direct/fluorescence; filed as Kd, often an IC50 or EC50 that approximates it; ≥ and ≤ were set here for values at or beyond the usual limits of such assays; conditions: source organism: Entamoeba histolytica
HLA-A*68:02 = experiment: as above; conditions: source organism: Entamoeba histolytica
HLA-B*46:01 = experiment: as above; conditions: source organism: Entamoeba histolytica
HLA-B*15:01 = experiment: as above
HLA-B*58:01 = experiment: as above
HLA-A*26:02 = experiment: as above
HLA-B*08:01 [3] = experiment: as above
HLA-B*40:01 = experiment: as above
HLA-A*03:01 = experiment: as above
HLA-B*48:01 = experiment: as above; conditions: source organism: Entamoeba histolytica
HLA-A*01:01 = experiment: as above
HLA-B*07:02 = experiment: as above
HLA-A*31:01 = experiment: as above
HLA-B*57:01 = experiment: as above; conditions: source organism: Entamoeba histolytica
HLA-A*26:01 = experiment: as above
HLA-B*18:01 = experiment: as above; conditions: source organism: Entamoeba histolytica
HLA-A*11:01 [4] = experiment: as above
HLA-B*27:05 = experiment: as above
HLA-B*08:02 = experiment: as above; conditions: source organism: Entamoeba histolytica
HLA-A*02:01 [5] = experiment: as above
HLA-A*30:01 = experiment: as above
HLA-A*11:01 [6] = experiment: IEDB peptide-MHC binding, purified MHC/competitive/fluorescence; filed as Kd, often an IC50 or EC50 that approximates it; ≥ and ≤ were set here for values at or beyond the usual limits of such assays
HLA-A*69:01 = experiment: IEDB peptide-MHC binding, purified MHC/direct/fluorescence; filed as Kd, often an IC50 or EC50 that approximates it; ≥ and ≤ were set here for values at or beyond the usual limits of such assays
HLA-A*24:03 = experiment: as above; conditions: source organism: Aggregatibacter actinomycetemcomitans
HLA-B*35:01 = experiment: as above; conditions: source organism: Pseudomonas putida
[7] = source organism: Entamoeba histolytica
[8] = source organism: Orthohantavirus hantanense
[9] = source organism: Aggregatibacter actinomycetemcomitans
[10] = source organism: Pseudomonas putida

## MMLSPLVAL
HLA-C*07:02
  Kd: 858 nM
HLA-B*39:01
  Kd: 0.8 nM
HLA-B*08:01 [1]
  Kd: 960 nM
HLA-A*02:01 [2]
  Kd: 0.2 nM

## DFGYATMAK
HLA-B*15:17
  Kd: ≥ 20000 nM
HLA-A*68:02
  Kd: ≥ 20000 nM
HLA-B*46:01
  Kd: ≥ 20000 nM
HLA-B*15:01; [7]
  Kd: ≥ 20000 nM
HLA-B*58:01; [7]
  Kd: ≥ 20000 nM
HLA-A*26:02; [7]
  Kd: ≥ 20000 nM
HLA-B*08:01 [3]; [7]
  Kd: ≥ 20000 nM
HLA-B*40:01; [7]
  Kd: ≥ 20000 nM
HLA-A*03:01; [7]
  Kd: 1600 nM
HLA-B*48:01
  Kd: ≥ 20000 nM
HLA-A*01:01; [7]
  Kd: ≥ 20000 nM
HLA-B*07:02; [7]
  Kd: ≥ 20000 nM
HLA-A*31:01; [7]
  Kd: ≥ 20000 nM
HLA-B*57:01
  Kd: ≥ 20000 nM
HLA-A*26:01; [7]
  Kd: ≥ 20000 nM
HLA-B*18:01
  Kd: ≥ 20000 nM
HLA-A*11:01 [4]; [7]
  Kd: 836 nM
HLA-B*27:05; [7]
  Kd: ≥ 20000 nM
HLA-B*08:02
  Kd: ≥ 20000 nM
HLA-A*02:01 [5]; [7]
  Kd: ≥ 20000 nM

## RLNLKTSFH
HLA-A*30:01; source organism: Sapporo rat virus
  Kd: 100 nM
HLA-A*03:01; [8]
  Kd: 407 nM
HLA-A*11:01 [4]; [8]
  Kd: 1350 nM

## RTLASGLIY
HLA-A*11:01 [6]; source organism: Yersinia pestis Nepal516
  Kd: 67.3 nM

## TTRAWFDKK
HLA-B*15:01; [9]
  Kd: ≥ 20000 nM
HLA-B*58:01; [9]
  Kd: ≥ 20000 nM
HLA-A*30:01; [9]
  Kd: 0.23 nM
HLA-A*69:01; [9]
  Kd: ≥ 20000 nM
HLA-B*08:01 [3]; [9]
  Kd: ≥ 20000 nM
HLA-B*40:01; [9]
  Kd: ≥ 20000 nM
HLA-A*03:01; [9]
  Kd: 2990 nM
HLA-A*01:01; [9]
  Kd: ≥ 20000 nM
HLA-B*07:02; [9]
  Kd: ≥ 20000 nM
HLA-A*24:03
  Kd: ≥ 20000 nM
HLA-A*31:01; [9]
  Kd: 60.7 nM
HLA-A*26:01; [9]
  Kd: ≥ 20000 nM
HLA-A*11:01 [4]; [9]
  Kd: 127 nM
HLA-B*27:05; [9]
  Kd: ≥ 20000 nM
HLA-A*02:01 [5]; [9]
  Kd: ≥ 20000 nM

## TLYCVHQR
HLA-A*11:01 [6]; source organism: Human immunodeficiency virus 1
  Kd: 111 nM

## SGIDTNAYY
HLA-A*26:02; source organism: West Nile virus strain PTRoxo
  Kd: ≥ 20000 nM
HLA-A*26:01; source organism: West Nile virus
  Kd: ≥ 20000 nM

## HTAEIQQFF
HLA-B*15:01; [10]
  Kd: 90.6 nM
HLA-A*69:01; [10]
  Kd: 32.8 nM
HLA-A*01:01; [10]
  Kd: 670 nM
HLA-A*31:01; [10]
  Kd: 1150 nM
HLA-A*26:01; [10]
  Kd: 5.41 nM
HLA-B*35:01
  Kd: 171 nM
